Laboratory results as given in the supplement of paper PMC9170038.

Tested on: MS2 coat protein
Test: apparent KD of MS2 coat protein; designed switch direction (-1 OFF switch, 1 ON switch): -1; higher = weaker reporter binding
Method in brief: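 Apparent KD, taken as the median over clusters for each design, was obtained by curve-fitting normalised cluster fluorescence. Designed RNA switches had been transcribed on Illumina chips by stalled E. coli RNA polymerase and titrated with SNAP-549-labelled MS2 coat protein, doubling from 0.7 or 1.5 nM to 3 µM.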

[1] = input ligand: microRNA oligo, concentration not stated
[2] = Eterna round: R95, input ligand: microRNA oligo, concentration not stated
[3] = Eterna round: R95, input ligand: FMN 200 uM
[4] = Eterna round: R95, input ligand: none

| Sequence | apparent KD of MS2 coat protein (input ligand: FMN 200 uM) [nM] | apparent KD of MS2 coat protein (input ligand: none) [nM] | apparent KD of MS2 coat protein [1] [nM] | apparent KD of MS2 coat protein [2] [nM] | apparent KD of MS2 coat protein [3] [nM] | apparent KD of MS2 coat protein [4] [nM] |
| --- | --- | --- | --- | --- | --- | --- |
| CAAUACAAGCGAAGAUCCUACAUGAGGAUCACCCAUGUGCUCGUCUUAAAAGGUACUGUGACGAAAGUCACGGUACC [Eli 87 + Mat D67 4] (Eterna round: R97, puzzle: Sensor, turn-off variant 1) | 282 | 296 |  |  |  |  |
| CAAUAUUAUCGAGGAUAUCCUAUUGUAUUUCAGGGAGAAGGCGGACUCAACAUGAGGAUCACCCAUGUAAGACGGGUACUAGAU [Ex NG1 #19] (Eterna round: R96, puzzle: Exclusion NG 1) | 92.2 | 89.7 | 69.8 |  |  |  |
| CACCAGAGAGGAUAUGCACUCAUGGCACCGAAAGGGAGGCGACAUGAGGAUCACCCAUGUAGAAGGCUCAGCAG [Eternabot (Original) Solution 16] (Eterna round: R97, puzzle: Exclusion 2) | 153 | 70.6 |  |  |  |  |
| CACCGUUACAUAGGAUAUGUUACAUGAGGAUCACCCAUGUAAUAAAUGAGAAUUUCGAAUGUAAUACAGAAGGAUGGAAUCGGC [Ostracism 71 - Jieux - Exclusion NG 2] (Eterna round: R96, puzzle: Exclusion NG 2) | 28.7 | 17.7 | 16.6 |  |  |  |
| CACGUACAGCAAGGAUAUCCAAAUGUUGAGCAUGGCCUAUCCAUACAUGAGGAUCACCCAUGUUCGGAGAAGGUGCAUGUAUCU [Enteinte] (Eterna round: R96, puzzle: Exclusion NG 2) | 11.2 | 12.8 | 9.96 |  |  |  |
| CACUGCAGGUUAGGAUAUGGACAACAACAUGAGGAUCACCCAUGUAUGUAUGAACAUGUUGAUCACCAGAAGGAACACAUCAGU [Exclusion NG 2 S2] (Eterna round: R96, puzzle: Exclusion NG 2) | 12.2 | 11.8 | 9.35 |  |  |  |
| CAGAAGUGAGGAUAUAUAUGUAAGUUUGAUCCAACAAGUAUACAUGAGGAUCACCCAUGUAGAAGGUGCUUCCC [Eternabot (L2) Solution 45] (Eterna round: R97, puzzle: Exclusion 2) | 57.2 | 44.6 |  |  |  |  |
| CAGCUGAAAGUGAGGAUAUCGACUGCCUCGGCAGUCGAGAAGGCACAUGAGGAUCACCCAUGUCUCAACAGCUG [BmEx4/1-A5] (Eterna round: R97, puzzle: Brourd's mod of Exclusion 4) | 81.4 | 23 |  |  |  |  |
| CAGCUGUCAGGAUAUCGUGCAUACAACGAAAGUUCUAUGUGCGAGAAGGGACAUGAGGAUCACCCAUGUUUACG [Omei Ex4 A24] (Eterna round: R97, puzzle: Exclusion 4) | 48 | 28.6 |  |  |  |  |
| CAGGAUAGAGGAUAUACAUAGAUACAGAUUCAUAUAAUCCUACAUGAGGAUCACCCAUGUAGAAGGCUAUCCUG [Fiskers Ex 2 - 25] (puzzle: Exclusion 2) |  |  |  | 14.5 |  |  |
| CAGGUGUGAGGAUAUGUGAUUAUGAUAGACCGAGUCUACCCACAGAAGGCACAUGAGGAUCACCCAUGUGAGUA [Eternabot (L1) Solution 75] (Eterna round: R97, puzzle: Exclusion 4) | 122 | 46.6 |  |  |  |  |
| CAGGUGUUAGGAUAUCGGAGGUUGAGGCAGACGGGAAUAUUCGAGAAGGAACAUGAGGAUCACCCAUGUAGUAG [JR_Exclu4_Sub037] (puzzle: Exclusion 4) |  |  |  | 21.5 |  |  |
| CAGUACAGAGGAUAUACAUGAGGAUCACCCAUGUGUUCCAGCUAGGAGACUAGCAAGUGUAGAAGGCUGUACUG [Mat - Exclusion 3 - JL Mod - D8] (Eterna round: R97, puzzle: Exclusion 3) | 592 | 405 |  |  |  |  |
| CAGUACCUAGGAUAUACACGGCCACGUGAUACCAAGGAGCAACUUGAGGAUCACCCAAGUAGAAGGAGGUACUG [jl-ex2.4.42 ViennaUCT mod] (Eterna round: R97, puzzle: Exclusion 2) | 3200 | 198 |  |  |  |  |
| CAGUACGGAGGAUAUACAUGAGGAUCACCCAUGUGAGAGAUACUAGUGAGGUCGAUUAGUAGAAGGCUGUACUG [Mat X3R4 m6] (Eterna round: R97, puzzle: Exclusion 3) | 501 | 39.7 |  |  |  |  |
| CAGUACUGAGGAUAUACAUGAGGAUCACCCAUGUGAGAGUUACUAGUGAGGUCGAUUAGUAGAAGGCAGUACUG [Mat X3R4 m29] (Eterna round: R97, puzzle: Exclusion 3) | 215 | 39.6 |  |  |  |  |
| CAGUACUGAGGAUAUACAUGAGGAUCACCCAUGUGUCUUCAAUUAGGAAACUAGUUAUGUAGAAGGCAGUACUG [Omei Ex3 Mod of Eli 4.27 v9] (Eterna round: R97, puzzle: Exclusion 3) | 770 | 62.2 |  |  |  |  |

| Sequence | apparent KD of MS2 coat protein (input ligand: FMN 200 uM) [nM] | apparent KD of MS2 coat protein (input ligand: none) [nM] | apparent KD of MS2 coat protein [1] [nM] | apparent KD of MS2 coat protein [2] [nM] | apparent KD of MS2 coat protein [3] [nM] | apparent KD of MS2 coat protein [4] [nM] |
| --- | --- | --- | --- | --- | --- | --- |
| CAGUACUGAGGAUAUACAUGAGGAUCACCCAUGUGUCUUCUCCUAGGAAACUAGGUAUGUAGAAGGCAGUACUG [Omei Ex3 Mod of Eli 4.27 v1] (Eterna round: R97, puzzle: Exclusion 3) | 1370 | 40 |  |  |  |  |
| CAGUACUGAGGAUAUACAUGAGGAUCACCCAUGUGUUCCAGCGAGGAAACUAGCAAAAGUAGAAGGCAGUACUG [salish99_ex3_r3_077] (Eterna round: R96, puzzle: Exclusion 3) | 242 | 18.5 | 15.6 |  |  |  |
| CAGUACUGAGGAUAUACAUGAGGAUCACCCAUGUGUUCCAGCGAGGAAACUAGCAAAAGUAGAAGGCAGUACUG [salish99_ex3_r3_077] (puzzle: Exclusion 3) |  |  |  | 18.4 | 199 | 17.5 |
| CAGUACUGAGGAUAUACAUGAGGAUCACCCAUGUGUUCCAGGUAGGAAACUAGCAAAAGUAGAAGGCAGUACUG [salish99_ex3_r3_078] (Eterna round: R96, puzzle: Exclusion 3) |  |  | 17.5 |  |  |  |
| CAGUACUGAGGAUAUACAUGAGGAUCACCCAUGUGUUCCAGGUAGGAAACUAGCAAAAGUAGAAGGCAGUACUG [salish99_ex3_r3_078] (puzzle: Exclusion 3) |  |  |  | 20.2 | 99.7 | 20.4 |
| CAGUACUGAGGAUAUACAUGAGGAUCACCCAUGUGUUCCUGCUAGGAAACUAGCAAAGGUAGAAGGCAGUACUG [Salish 065 m3] (Eterna round: R97, puzzle: Exclusion 3) | 464 | 27.9 |  |  |  |  |
| CAGUACUGAGGAUAUACAUGAGGAUCACCCAUGUGUUUUCUAUUAGGAAACUAGUUAUGUAGAAGGCAGUACUG [Omei Ex3 Mod of Eli 4.27 v11] (Eterna round: R97, puzzle: Exclusion 3) | 304 | 40 |  |  |  |  |
| CAGUCGAUAAGAUCAAUUAAUUAACAUGAGGAUCACCCAUGUGAGGAUAUCAGCUCGAUUAGAGCUGAGAAGGCACAACGACUG [ExNG3/17-A1] (Eterna round: R96, puzzle: Exclusion NG 3) | 232 | 46.8 | 31.3 |  |  |  |
| CAGUGACAUGAGGAUCACCCAUGUUAGGAUAUCCGCAAAGGGAGUAGGAUUCCCAUUUGGAGAAGGGACAGGUG [Eternabot (L1) Solution 95] (Eterna round: R97, puzzle: Exclusion 1) | 72.5 | 52.6 |  |  |  |  |
| CAUAAUUUUCGGAAUAUGUACAUGAGGAUCACCCAUGUGACGAGUUACAUGAUUAACAAGCUUUUUGCUCGUCUUAU [Sensor v3 - Turn-off variant 1 - 12] (puzzle: Sensor v3, turn-off variant 1) |  |  |  | 31.9 | 118 | 207 |
| CAUACACAUGAGGAUCACCCAUGUGAGGAUAUGCGUACGUUGUCCGUAGGCGACGUGCGCAGAAGGCGCGAGGU [JL-ex1-3.16 Eli mod] (puzzle: Exclusion 1) |  |  |  | 28.4 |  |  |
| CAUCAGAUAGGAUAUACAGGCCCGUCUUUAUAUUGAUCCCGACAUGAGGAUCACCCAUGUAGAAGGAUCAGAUG [Mod 27 - Jieux - Exclusion 2] (Eterna round: R97, puzzle: Exclusion 2) | 21.2 | 16.1 |  |  |  |  |
| CAUCUGUGAGGAUAUGGUGAGUAGUGCCUGAGCGCUGCUCACCAGAAGGCACAUGAGGAUCACCCAUGUAUGAC [JL-ex4-2.01 denovo] (Eterna round: R96, puzzle: Exclusion 4) | 319 | 70 | 46.3 |  |  |  |
| CAUCUGUGAGGAUAUGGUGAGUAGUGCCUGAGCGCUGCUCACCAGAAGGCACAUGAGGAUCACCCAUGUAUGAC [JL-ex4-2.01 denovo] (puzzle: Exclusion 4) |  |  |  | 43.7 |  |  |
| CAUGAUCUUCGGAUCAUGUACAUGAGGAUCACCCAUGUGACGAGUUGAUCCUCAUACAAGCUUUUUGCUCGUCUUAU [Sensor v3 - Turn-off variant 1 - 15] (puzzle: Sensor v3, turn-off variant 1) |  |  |  | 16.7 | 26.8 | 24.4 |
| CAUGAUUGGGAAGGAUAUUGACCUAGUUAGCGCCGAGAAGGUCCCUUUCACAUGAGGAUCACCCAUGUGAGUCUGGUGUUCGAG [Ex NG1 #96] (Eterna round: R96, puzzle: Exclusion NG 1) | 37.7 | 37.6 | 26.8 |  |  |  |
| CAUGUUGACAGAGGAUAUGCAAUGUGAUUUAGGGUAGAAGGCUGAGACAUGAGGAUCACCCAUGUGGGUGCGUUCUAGCGACAA [Atmala] (Eterna round: R96, puzzle: Exclusion NG 1) | 150 | 34 | 19.4 |  |  |  |
